# B1: Basigin (Homo sapiens), P35613-2 (parent)
# chain: MAAALFVLLGFALLGTHGASGAAGTVFTTVEDLGSKILLTCSLNDSATEVTGHRWLKGGVVLKEDALPGQKTEFKVDSDDQWGEYSCVFLPEPMGTANIQLHGPPRVKAVKSSEHINEGETAMLVCKSESVPPVTDWAWYKITDSEDKALMNGSESRFFVSSSQGRSELHIENLNMEADPGQYRCNGTSSKGSDQAIITLRVRSHLAALWPFLGIVAEVLVLVTIIFIYEKRRKPEDVLDDDDAGSAPLKSSGQHQNDKGKNVRQRNSS
# Variants of: B1
# Conditions: with rh5_plaf7 RH5, Q8IFM5
# Sequence of rh5_plaf7 RH5, Q8IFM5 (Q8IFM5 whole entry): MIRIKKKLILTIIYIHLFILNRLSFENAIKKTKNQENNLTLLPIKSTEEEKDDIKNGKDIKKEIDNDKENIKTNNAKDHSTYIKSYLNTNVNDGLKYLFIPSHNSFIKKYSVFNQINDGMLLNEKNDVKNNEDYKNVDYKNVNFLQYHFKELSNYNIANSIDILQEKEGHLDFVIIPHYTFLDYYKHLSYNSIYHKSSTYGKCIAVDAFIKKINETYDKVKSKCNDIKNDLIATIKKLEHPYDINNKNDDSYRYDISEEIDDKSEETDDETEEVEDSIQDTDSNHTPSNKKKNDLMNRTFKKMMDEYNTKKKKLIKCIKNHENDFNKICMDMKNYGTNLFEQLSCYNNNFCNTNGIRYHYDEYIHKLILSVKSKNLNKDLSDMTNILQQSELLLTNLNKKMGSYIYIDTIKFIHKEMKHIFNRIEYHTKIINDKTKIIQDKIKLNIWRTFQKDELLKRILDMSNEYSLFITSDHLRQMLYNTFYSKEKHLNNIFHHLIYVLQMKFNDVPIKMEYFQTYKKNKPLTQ
row,Variant,effect of a mutation on the interaction
1,F27L,decreasing interaction strength
2,K75E,with no effect
3,D32E,with no effect
4,Q100K,decreasing interaction strength
